Results reported in patent US11612662B2, “Multi-arm polymeric prodrug conjugates of pemetrexed-based compounds” (priority 2010, dated 2023).

Key:
in vivo = conditions: for maximum treatment-related body weight loss / time to recover lost body weight / Days of Deaths (s = surviving at study end) / tolerability of the dosage level / common clinical signs / necropsy findings / Max. Mean Body Weight change during Rx (%) / Day of Max. Mean Body Weight Loss (body weight nadir) / % Rx Related Deaths: low folate diet; for Days of Deaths (s = surviving at study end): five mice listed singly; for tolerability of the dosage level: tolerated if treatment-related weight loss <20%; for Max. Mean Body Weight change during Rx (%) / MTD (maximum tolerated dose): intravenously once each day for ten days; for Day of Max. Mean Body Weight Loss (body weight nadir) / % Rx Related Deaths: once each day for ten days; for MTD (maximum tolerated dose): mice fed a folate deficient diet, dose equivalents
Procedure: The purpose of this study was to determine the maximum tolerated dose for pemetrexed (PMX), Compound 20a (from Example 1), Compound 20b (from Example 1), Compound 20c (from Example 1), and Compound 20d (from Example 1) in female SCID mice fed a low folate diet. All compounds were administered intravenously, once each day, for ten consecutive days.
Calculations were made to provide “dose equivalents” between PMX, Compound 20a, Compound 20b, Compound 20c and Compound 20d, which “dose equivalents” along with the “actual dose” administered are provided in Table 2. All dosagese in this example are expressed in terms of “dose equivalents” and adjustments were made for excipients, salts and hydration state.
Female SCID mice (HsdIcr:Ha (ICR)-Prkdc-scid) were obtained from Harlan. They were seven weeks old on Day 1 of the experiment. The mice in Groups 1 and 2 were fed irradiated Rodent Diet 5053 (LabDiet™). The mice in Groups 3 through 19 were fed irradiated Folic Acid Deficient Purina TestDiet supplemented with 1% succinylsufathiazol from 14 days prior to dosing until 14 days after dosing was completed, at which time the study was terminated and the mice were then euthanized. All groups received drinking water ad libitum. Mice were housed in static cages in clean rooms that provide H.E.P.A filtered air into the environment at 100 complete air changes per hour. All treatments, body weight determinations, and tumor measurements were carried out in the environment. The environment was controlled to a temperature range of 70°±2° F. and a humidity range of 30-70%. […] Mice found in obvious distress or in a moribund condition were euthanized. The study was carried out in an AAALAC accredited facility.
Treatments began on Day 1. […] Mice in Groups 3 through 19 were fed irradiated Folic Acid Deficient Purina TestDiet with 1% Succinylsufathiazol for 14 days prior to dosing as well as throughout the entire experiment. All mice were dosed according to individual body weight on the day of treatment (0.2 ml/20 g).
Mice were weighed on each day of treatment and at least three times weekly thereafter. Individual body weights were recorded three times weekly. […] In this report, a dosage level is described as tolerated if treatment-related weight loss (during and two weeks after treatment) is <20%. Upon death or euthanasia, all mice were necropsied to provide a general assessment of potential cause of death and perhaps target organs for toxicity.

[1] = Single dose maximum tolerated dose study; type: in vivo, mice; conditions: single intravenous dose; for Single dose MTD: dose equivalents
Procedure: Because of too much efficacy of daily dosing for ten days in a pilot xenograft study (likely due to the effects of repeated dosing), a single dose maximum tolerated dose study was conducted using a method similar to that provided in Example 3 in order to have a better dosing schedule for a comparative xenograft study.

xenograft = assay: In vivo xenograft study; set-up: species or system female athymic nu/nu mice; conditions: as of day 26; intravenously, at 80% and at 50% of the single dose maximum tolerated dose
Procedure: Briefly, for run of the experiment, a previously untreated group of 8-12 week old mice was intravenously administered a test article prepared in saline and diluted to appropriate concentrations to allow administration volumes of a maximum of 20 mL/kg. Each compound of interest was tested twice: once at 80% of the maximum tolerated dose and once at 50% of the maximum tolerated (maximum tolerated doses calculated on the single dose maximum tolerated dose study).
Mice were observed daily for clinical signs and body weights were recorded daily (except on weekend days) then biweekly until the end of study. Dosing was terminated for any group in which mean weight loss exceeded 20% or >10% of animals died. Moribund animals were euthanized.

[2] = 3.75 mg/kg/inj dose equivalents

Substance: 4-arm-PEG40k-γ-amide-Pemetrexed Conjugate [Compound 20d]
- maximum treatment-related body weight loss (in vivo; 1 mg/kg): 0.9%
- time to recover lost body weight (in vivo; 1 mg/kg): 0.8 days
- Days of Deaths (s = surviving at study end) (in vivo; 1 mg/kg/inj dose equivalents): s, s, s, s, s
- tolerability of the dosage level (in vivo; 1 mg/kg): tolerated
- maximum treatment-related body weight loss (in vivo; 3.75 mg/kg): 4.5%
- time to recover lost body weight (in vivo; 3.75 mg/kg): 11.3 days
- Days of Deaths (s = surviving at study end) (in vivo; [2]): s, s, s, s, s
- tolerability of the dosage level (in vivo; 3.75 mg/kg): tolerated
- maximum treatment-related body weight loss (in vivo; 15 mg/kg): 28.8%
- time to recover lost body weight (in vivo; 15 mg/kg): not recovered prior to study termination
- tolerability of the dosage level (in vivo; 15 mg/kg): toxic
- common clinical signs (in vivo; dosage levels found tolerated): Rough pelage
- necropsy findings (in vivo; dosage levels found tolerated): Nothing significant
- common clinical signs (in vivo; dosage levels found toxic): Rough pelage
- necropsy findings (in vivo; dosage levels found toxic): Nothing significant
- Max. Mean Body Weight change during Rx (%) (in vivo; 1 mg/kg/inj dose equivalents): −0.9%
- Max. Mean Body Weight change during Rx (%) (in vivo; [2]): −4.5%
- Max. Mean Body Weight change during Rx (%) (in vivo; 15 mg/kg/inj dose equivalents): −28.8%
- Day of Max. Mean Body Weight Loss (body weight nadir) (in vivo; 1 mg/kg/inj dose equivalents): 5
- Day of Max. Mean Body Weight Loss (body weight nadir) (in vivo; [2]): 5
- % Rx Related Deaths (in vivo; 15 mg/kg/inj dose equivalents): 40%
- Day of Max. Mean Body Weight Loss (body weight nadir) (in vivo; 15 mg/kg/inj dose equivalents): 15
- MTD (maximum tolerated dose) (in vivo): 3.75 to 15 mg/kg
- Single dose MTD ([1]; in mg/kg): ~40
- BWL (body weight loss) ([1]; tested dose (equiv) 40): −12.6%
- day (of body weight loss) ([1]; tested dose (equiv) 40): 7
- treatment-related deaths ([1]; tested dose (equiv) 40): 0
- BWL (body weight loss) ([1]; tested dose (equiv) 60): −20.8%
- day (of body weight loss) ([1]; tested dose (equiv) 60): 9
- treatment-related deaths ([1]; tested dose (equiv) 60): 0
- BWL (body weight loss) ([1]; tested dose (equiv) 90): −21.4%
- day (of body weight loss) ([1]; tested dose (equiv) 90): 9
- mean day of death ([1]; tested dose (equiv) 90): 12
- treatment-related deaths ([1]; tested dose (equiv) 90): 1
- BWL (body weight loss) ([1]; tested dose (equiv) 125): −21.8%
- day (of body weight loss) ([1]; tested dose (equiv) 125): 6
- mean day of death ([1]; tested dose (equiv) 125): 7
- treatment-related deaths ([1]; tested dose (equiv) 125): 5
- tumor volume compared with saline control (xenograft): significantly less tumor volume than saline control
- tumor volume compared with the other articles tested (xenograft): lowest tumor volumes of all articles tested

Substance: 4-arm-PEG30k-γ-amide-Pemetrexed Conjugate [Compound 20c]
- maximum treatment-related body weight loss (in vivo; 1 mg/kg): 4.8%
- time to recover lost body weight (in vivo; 1 mg/kg): 5.5 days
- Days of Deaths (s = surviving at study end) (in vivo; 1 mg/kg/inj dose equivalents): s, s, s, s, s
- tolerability of the dosage level (in vivo; 1 mg/kg): tolerated
- maximum treatment-related body weight loss (in vivo; 3.75 mg/kg): 1.4%
- time to recover lost body weight (in vivo; 3.75 mg/kg): 2.2 days
- Days of Deaths (s = surviving at study end) (in vivo; [2]): s, s, s, s, s
- tolerability of the dosage level (in vivo; 3.75 mg/kg): tolerated
- maximum treatment-related body weight loss (in vivo; 15 mg/kg): 18.8%
- time to recover lost body weight (in vivo; 15 mg/kg): not recovered prior to study termination
- tolerability of the dosage level (in vivo; 15 mg/kg): toxic
- common clinical signs (in vivo; dosage levels found tolerated): Rough pelage
- necropsy findings (in vivo; dosage levels found tolerated): no significant findings
- necropsy findings (in vivo; dosage levels found toxic): Necrotic intestines
- Max. Mean Body Weight change during Rx (%) (in vivo; 1 mg/kg/inj dose equivalents): −4.8%
- Max. Mean Body Weight change during Rx (%) (in vivo; [2]): −1.4%
- Max. Mean Body Weight change during Rx (%) (in vivo; 15 mg/kg/inj dose equivalents): −22.0%
- % Rx Related Deaths (in vivo; 1 mg/kg/inj dose equivalents): 0%
- Day of Max. Mean Body Weight Loss (body weight nadir) (in vivo; 1 mg/kg/inj dose equivalents): 10
- % Rx Related Deaths (in vivo; [2]): 0%
- Day of Max. Mean Body Weight Loss (body weight nadir) (in vivo; [2]): 5
- % Rx Related Deaths (in vivo; 15 mg/kg/inj dose equivalents): 20%
- Day of Max. Mean Body Weight Loss (body weight nadir) (in vivo; 15 mg/kg/inj dose equivalents, 15 mg/kg): 19
- Single dose MTD [1]: <40
- BWL (body weight loss) ([1]; tested dose (equiv) 40): −19.6%
- day (of body weight loss) ([1]; tested dose (equiv) 40): 9
- mean day of death ([1]; tested dose (equiv) 40): 12
- treatment-related deaths ([1]; tested dose (equiv) 40): 5
- BWL (body weight loss) ([1]; tested dose (equiv) 70): −25.0%
- day (of body weight loss) ([1]; tested dose (equiv) 70): 9
- mean day of death ([1]; tested dose (equiv) 70): 10.5
- treatment-related deaths ([1]; tested dose (equiv) 70): 2
- BWL (body weight loss) ([1]; tested dose (equiv) 95): −27.1%
- day (of body weight loss) ([1]; tested dose (equiv) 95): 7
- mean day of death ([1]; tested dose (equiv) 95): 9
- treatment-related deaths ([1]; tested dose (equiv) 95): 3
- BWL (body weight loss) ([1]; tested dose (equiv) 125): −25.3%
- day (of body weight loss) ([1]; tested dose (equiv) 125): 9
- mean day of death ([1]; tested dose (equiv) 125): 10.5
- treatment-related deaths ([1]; tested dose (equiv) 125): 2
- tumor volume compared with saline control (xenograft): significantly less tumor volume than saline control
- tumor volume compared with the other articles tested (xenograft): lowest tumor volumes of all articles tested

Substance: 4-arm-PEG10k-γ-amide-Pemetrexed Conjugate [Compound 20a]
- maximum treatment-related body weight loss (in vivo; 1 mg/kg): approximately 3.0%
- tolerability of the dosage level (in vivo; 1 mg/kg): tolerated
- maximum treatment-related body weight loss (in vivo; 3.75 mg/kg): approximately 3.0%
- Days of Deaths (s = surviving at study end) (in vivo; [2]): s, s, s, s, s
- tolerability of the dosage level (in vivo; 3.75 mg/kg): tolerated
- maximum treatment-related body weight loss (in vivo; 15 mg/kg): 14.9%
- time to recover lost body weight (in vivo; 15 mg/kg): approximately 10 days
- tolerability of the dosage level (in vivo; 15 mg/kg): toxic
- common clinical signs (in vivo; dosage levels found tolerated): Rough pelage
- necropsy findings (in vivo; dosage levels found tolerated): bloated intestines and air filled stomachs
- Max. Mean Body Weight change during Rx (%) (in vivo; 1 mg/kg/inj dose equivalents): −3.4%
- Max. Mean Body Weight change during Rx (%) (in vivo; [2]): −3.0%
- Max. Mean Body Weight change during Rx (%) (in vivo; 15 mg/kg/inj dose equivalents): −14.9%
- % Rx Related Deaths (in vivo; 1 mg/kg/inj dose equivalents): 20%
- Day of Max. Mean Body Weight Loss (body weight nadir) (in vivo; 1 mg/kg/inj dose equivalents): 5
- % Rx Related Deaths (in vivo; [2]): 0%
- Day of Max. Mean Body Weight Loss (body weight nadir) (in vivo; [2]): 8
- % Rx Related Deaths (in vivo; 15 mg/kg/inj dose equivalents): 40%
- Day of Max. Mean Body Weight Loss (body weight nadir) (in vivo; 15 mg/kg/inj dose equivalents): 8
- MTD (maximum tolerated dose) (in vivo): 3.75 to 15 mg/kg

Substance: 4-arm-PEG-40k-γ-Ethyl-Ester-pemetrexed [Compound 24c]
- Single dose MTD ([1]; in mg/kg): 10
- BWL (body weight loss) ([1]; tested dose (equiv) 5): −0.5%
- day (of body weight loss) ([1]; tested dose (equiv) 5): 5
- treatment-related deaths ([1]; tested dose (equiv) 5): 0
- BWL (body weight loss) ([1]; tested dose (equiv) 10): −7.6%
- day (of body weight loss) ([1]; tested dose (equiv) 10): 5
- treatment-related deaths ([1]; tested dose (equiv) 10): 0
- BWL (body weight loss) ([1]; tested dose (equiv) 15): −15.7%
- day (of body weight loss) ([1]; tested dose (equiv) 15): 7
- treatment-related deaths ([1]; tested dose (equiv) 15): 0
- tumor volume compared with saline control (xenograft): significantly less tumor volume than saline control

Substance: 4-arm-PEG-20k-γ-Ethyl-Ester-pemetrexed [Compound 24b]
- Single dose MTD ([1]; in mg/kg): 12
- treatment-related deaths ([1]; tested dose (equiv) 8): 0
- BWL (body weight loss) ([1]; tested dose (equiv) 12): −8.9%
- day (of body weight loss) ([1]; tested dose (equiv) 12): 5
- treatment-related deaths ([1]; tested dose (equiv) 12): 0
- BWL (body weight loss) ([1]; tested dose (equiv) 20): −10.4%
- day (of body weight loss) ([1]; tested dose (equiv) 20): 5
- treatment-related deaths ([1]; tested dose (equiv) 20): 0
- tumor volume compared with saline control (xenograft): significantly less tumor volume than saline control

Substance: 4-arm-PEG-20k-γ-isopropyl-ester-pemetrexed [Compound 28]
- Single dose MTD ([1]; in mg/kg): 10
- BWL (body weight loss) ([1]; tested dose (equiv) 10): −7.3%
- day (of body weight loss) ([1]; tested dose (equiv) 10): 9
- treatment-related deaths ([1]; tested dose (equiv) 10): 0
- BWL (body weight loss) ([1]; tested dose (equiv) 18): −6.6%
- day (of body weight loss) ([1]; tested dose (equiv) 18): 5
- treatment-related deaths ([1]; tested dose (equiv) 18): 0
- BWL (body weight loss) ([1]; tested dose (equiv) 25): −9.1%
- day (of body weight loss) ([1]; tested dose (equiv) 25): 7
- treatment-related deaths ([1]; tested dose (equiv) 25): 0
- tumor volume compared with saline control (xenograft): significantly less tumor volume than saline control
